# Measurements published in patent publication EP4631959A2, “NOVEL MINIGASTRIN-DERIVED CHOLECYSTOKININ 2 RECEPTOR BINDING MOLECULES FOR IMAGING AND TARGETED RADIOTHERAPY” (priority 2022, dated 2024).
# Read-outs that look alike come from different tables or passages of the source. Starred links: 1 amine or outer side, 2 acyl side, 3 side chain; linkers in the order of their positions; H or OH if unused. Non-standard residues stand in square brackets, D forms with d. Residues, ends and D or L forms follow the SMILES beside them. *: point of attachment. DOTA = O=C(O)CN1CCN(CC(=O)O)CCN(CC(=O)*)CCN(CC(=O)O)CC1; d(γGlu) = O=C(O)[C@@H](CCC(=O)[*:2])N[*:1]; 1Nal = N[C@@H](Cc1cccc2ccccc12)C(=O)O; NMeNle = CCCC[C@H](NC)C(=O)O; PEG4 = NCCOCCOCCOCCOCCC(=O)O
# What was measured:
# [1] = biological target: T1, Human serum albumin (HSA) (Homo sapiens, UniProt P02768); assay: Determination of HSA binding on a Chiralpak HSA column; assay type: in vitro ADME
# T1 construct: purchased Daicel, Tokyo, Japan H13H-2433
# T1 sequence (P02768 25-609): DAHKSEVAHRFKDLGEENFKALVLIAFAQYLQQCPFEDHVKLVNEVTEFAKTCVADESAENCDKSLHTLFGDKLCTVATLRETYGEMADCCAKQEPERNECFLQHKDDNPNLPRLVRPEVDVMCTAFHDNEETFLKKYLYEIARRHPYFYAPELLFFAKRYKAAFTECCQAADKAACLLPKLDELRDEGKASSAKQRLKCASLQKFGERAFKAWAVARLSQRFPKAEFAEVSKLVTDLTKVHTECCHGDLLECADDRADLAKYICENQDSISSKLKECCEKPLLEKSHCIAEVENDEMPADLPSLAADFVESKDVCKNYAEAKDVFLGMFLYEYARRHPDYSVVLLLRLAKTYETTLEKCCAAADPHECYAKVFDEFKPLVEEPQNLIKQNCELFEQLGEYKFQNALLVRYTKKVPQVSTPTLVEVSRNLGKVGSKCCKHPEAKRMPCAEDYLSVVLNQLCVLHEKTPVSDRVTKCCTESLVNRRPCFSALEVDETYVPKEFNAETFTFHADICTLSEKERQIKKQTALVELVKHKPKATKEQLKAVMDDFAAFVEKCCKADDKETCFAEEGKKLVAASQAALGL
# Protocol: Human serum albumin (HSA) binding of the CCK-2R-targeted compounds was determined as reported by Valko et al., using a Chiralpak HSA column (50 x 3 mm, 5 µm, H13H-2433, Daicel, Tokyo, Japan) at a constant flow rate of 0.5 mL/min at rt. Therefore, an aq. solution of NH4OAc (pH = 6.9, 50 mM) as mobile phase A and isopropanol as mobile phase B were freshly prepared. In order to calibrate the column prior to the experiments, the retention times of nine reference substances with a HSA binding in the range of 13 to 99% were determined using a gradient of 100% A (0 to 3 min), followed by 80% A (3 to 40 min). Furthermore, all substances tested, were dissolved in a mixture (1/1, v/v) of A and B reaching a final concentration of 0.5 mg/mL. The HSA binding of all rhCCK ligands tested, was determined using the same gradient as for the calibration probes. The non-linear regression of the calibration experiments and the CCK-2R ligands (Fig. 29) was established using the OriginPro 2016G software (Northampton, United States).
# CCK-2R [2] = biological target: T2, CCK-2R (Rattus norvegicus, UniProt P30553); assay: Determination of IC50: CCK-2R affinity on AR4-2J cells, competition with [^177Lu]Lu-DOTA-PP-F11N; assay type: binding; details: AR4-2J cells
# T2 construct: The CCK-2R expressing rat pancreatic tumor cells AR4-2J; host or cells: AR4-2J rat pancreatic tumor cells
# T2 sequence (P30553 1-452): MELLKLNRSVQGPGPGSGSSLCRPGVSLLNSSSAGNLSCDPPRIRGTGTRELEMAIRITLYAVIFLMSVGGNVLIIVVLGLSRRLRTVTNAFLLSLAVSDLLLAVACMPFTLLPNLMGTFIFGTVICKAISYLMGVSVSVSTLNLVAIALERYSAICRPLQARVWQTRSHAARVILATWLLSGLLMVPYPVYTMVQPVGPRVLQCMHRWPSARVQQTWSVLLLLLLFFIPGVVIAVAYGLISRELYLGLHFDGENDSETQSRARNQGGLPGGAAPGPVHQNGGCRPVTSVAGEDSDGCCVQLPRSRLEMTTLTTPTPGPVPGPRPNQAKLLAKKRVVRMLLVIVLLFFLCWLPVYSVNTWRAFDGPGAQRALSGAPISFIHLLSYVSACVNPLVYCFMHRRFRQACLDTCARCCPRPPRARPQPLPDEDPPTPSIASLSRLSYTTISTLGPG
# Outline: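 Competitive displacement of 0.3 pmol/well [177Lu]Lu-DOTA-PP-F11N by compounds (10^-10 to 10^-4 M) on AR4-2J cells in BSA-supplemented medium, 3 h at 37 °C. Free label was collected from medium plus PBS rinse, and cell-bound label was recovered with 1 M NaOH, both measured by γ-counter. Each IC50 was determined twice, in triplicate.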
# [3] = Biodistribution in AR4-2J tumor-bearing CB17-SCID mice; assay type: in vivo; details: female, CB17-SCID, mouse, in vivo, iv, 100 pmol, total radioactivity
# Protocol: (§1) All animal experiments were conducted in accordance with general animal welfare regulations in Germany (German animal protection act, in the edition of the announcement, dated May 18th, 2006, as amended by Article 280 of June 19th 2020, approval no. ROB-55.2-1-2532.Vet_02-18-109 by the General Administration of Upper Bavaria) and the institutional guidelines for the care and use of animals. CB17-SCID mice of both genders (Charles River Laboratories International Inc., Sulzfeld, Germany) were let to acclimate at the in-house animal facility at least for one week before inoculation was performed. To establish tumor xenografts, AR4-2J cells (5.0 × 10^6 cells per 200 µL) were suspended in a 1/1 mixture (v/v) of Dulbecco modified Eagle medium / Nutrition Mixture F-12 with Glutamax-I (1/1) and Cultrex® Basement Membrane Matrix Type 3 (Trevigen, Gaithersburg, MD, USA) and inoculated subcutaneously onto the right shoulder of 6-10 weeks old CB17-SCID mice (Charles River, Sulzfeld, Germany). Mice were used for experiments when tumors had grown to a volume of 150-300 mm^3 (1-2 weeks after inoculation). Exclusion criteria for animals from an experiment were either a weight loss higher than 20%, a tumor size above 1,500 mm^3, an ulceration of the tumor, a respiratory distress or a change of behavior. None of these criteria applied to any animal from the experiment. Neither randomization nor blinding was applied in the allocation of the experiments. Health status is SPF according to FELASA.
# (§2) Approximately 1-5 MBq (100 pmol) of the radiolabeled minigastrin analogues were injected into the tail vein of AR4-2J tumor-bearing female CB17-SCID mice and sacrificed at 1 to 24 h post injection (n = 4-5). Selected organs were removed, weighted and measured in a γ-counter.
# CCK-2R [4] = assay: Competition studies in AR4-2J tumor-bearing CB17-SCID mice; assay type: in vivo; details: co-administration of excess unlabeled competitor (40 nmol), 24 h p.i.
# Protocol: For competition studies, the radiolabeled compound (approx. 1-5 MBq, 100 pmol) was co-injected with [^natLu]Lu-DOTA-MGS5 (40 nmol) into the tail vein of AR4-2J tumor-bearing CB17-SCID mice and sacrificed at 1 to 24 h post injection (n = 2). Selected organs were removed, weighted and measured in a γ-counter.
# [5] = n-Octanol-PBS distribution coefficient (logD7.4); assay type: physicochemical; details: for logD7.4 (n ≥ 5), ^177Lu-labeled: pH = 7.4, ^177Lu-labeled; for logD7.4 (n ≥ 5), ^67Ga-labeled: pH = 7.4, ^67Ga-labeled
# Protocol: Approximately 1 MBq of the labeled tracer was dissolved in 1 mL of a 1/1 mixture (v/v) of phosphate buffered saline (PBS, pH = 7.4) and n-octanol in an Eppendorf tube (1.5 mL). After vigorous mixing of the suspension for 3 min at rt, the vial was centrifuged at 9,000 rpm for 5 min (Biofuge 15, Heraeus Sepatech, Osterode, Germany) and 200 µL aliquots of both layers were measured in a γ-counter. The experiment was repeated at least five times.
# [6] = system: AR4-2J tumor-bearing CB17-SCID mice; assay: Biodistribution in AR4-2J tumor-bearing CB17-SCID mice; assay type: in vivo; details: 24 h p.i.
# Protocol: as §1, §2
# [7] = ^natCu-labeled, read-out: IC50 [nM] (n = 3), ^natCu-labeled
# [8] = ^natGa-labeled, read-out: IC50 [nM] (n = 3), ^natGa-labeled
# [9] = ^natLu-labeled, read-out: IC50 [nM] (n = 3), ^natLu-labeled
SMILES,HSA binding [%] [1],"HSA binding [%], ^natCu-labeled [1]","HSA binding [%], ^natGa-labeled [1]","HSA binding [%], ^natLu-labeled [1]",IC50 (CCK-2R [2]; [7]),IC50 (CCK-2R [2]; [8]),tissue to tissue ratio at 24 h [3],tissue uptake at 24 h [3],activity levels in stomach and tumor in competition studies (CCK-2R specificity) (CCK-2R [4]),"logD7.4 (n ≥ 5), ^177Lu-labeled [5]",IC50 (CCK-2R [2]; [9]),"tissue uptake at 24 h ([3]; 24 h p.i., read-out: activity levels in the tumor)","activity levels in the tumor, fold higher than those of [^177Lu]Lu-DOTA-PP-F11N [6]","logD7.4 (n ≥ 5), ^64Cu-labeled ([5]; pH = 7.4, ^64Cu-labeled)","logD7.4 (n ≥ 5), ^67Ga-labeled [5]","logD7.4 (n ≥ 5), ^67Ga-labeled ([5]; listed as [^67Ga]Ga-DOTA-CCK-66)"
"CCCC[C@@H](C(=O)N[C@@H](CC(=O)O)C(=O)N[C@@H](Cc1cccc2ccccc12)C(N)=O)N(C)C(=O)[C@H](Cc1c[nH]c2ccccc12)NC(=O)CNC(=O)[C@H](Cc1ccc(O)cc1)NC(=O)[C@H](C)NC(=O)[C@@H](CCC(=O)O)NC(=O)CN1CCN(CC(=O)O)CCN(CC(=O)O)CCN(CC(=O)O)CC1 [DOTA-MGS5, DOTA-glu^6-Ala^7-Tyr^8-Gly^9-Trp^10-(N-Me)Nle^11-Asp^12-1-Nal^13-NH2, reference compound]",87.6%,87.6%,82.0%,91.9%,3.9 ± 1 nM,3.6 ± 0.4 nM,1480 ± 329,11 ± 1.15 %ID/g,–,–,–,–,–,–,–,–
"CCCC[C@H](NC(=O)[C@H](Cc1c[nH]c2ccccc12)NC(=O)CNC(=O)[C@H](Cc1ccc(O)cc1)NC(=O)[C@H](C)NC(=O)CC[C@@H](NC(=O)CC[C@@H](NC(=O)CC[C@@H](NC(=O)CC[C@@H](NC(=O)CC[C@@H](NC(=O)CC[C@@H](NC(=O)[C@@H](CNC(=O)c1ccc([Si](F)(C(C)(C)C)C(C)(C)C)cc1)NC(=O)CCC(C(=O)O)N1CCN(CC(=O)O)CCN(CC(=O)O)CCN(CC(=O)O)CC1)C(=O)O)C(=O)O)C(=O)O)C(=O)O)C(=O)O)C(=O)O)C(=O)N[C@@H](CC(=O)O)C(=O)N[C@@H](Cc1ccccc1)C(N)=O (some centres unmarked) [DOTAGA-MG-SiFA-19, DOTAGA-dap(SiFA)-γ-F11N]",–,–,–,–,–,–,–,–,specific,−2.54 ± 0.05,–,–,–,–,–,–
"CCCC[C@H](NC(=O)[C@H](Cc1c[nH]c2ccccc12)NC(=O)CNC(=O)[C@H](Cc1ccc(O)cc1)NC(=O)[C@H](C)NC(=O)CC[C@@H](NC(=O)CC[C@@H](NC(=O)CC[C@@H](NC(=O)CC[C@@H](NC(=O)CC[C@@H](NC(=O)CC[C@@H](NC(=O)CC[C@@H](NC(=O)CC[C@@H](NC(=O)[C@@H](CNC(=O)c1ccc([Si](F)(C(C)(C)C)C(C)(C)C)cc1)NC(=O)CN1CCN(CC(=O)O)CCN(CC(=O)O)CCN(CC(=O)O)CC1)C(=O)O)C(=O)O)C(=O)O)C(=O)O)C(=O)O)C(=O)O)C(=O)O)C(=O)O)C(=O)N[C@@H](CC(=O)O)C(=O)N[C@@H](Cc1ccccc1)C(N)=O [DOTA-MG-SiFA-23, DOTA-dap(SiFA)-(γ-glu)8- Ala-Tyr-Gly-Trp-Nle-Asp-Phe-NH2]",–,–,–,–,–,–,–,–,specific,−2.69 ± 0.06,4.71 ± 0.62 nM,> 25 %ID/g,more than 8 fold,–,–,–
"CCCC[C@@H](C(=O)N[C@@H](CC(=O)O)C(=O)N[C@@H](Cc1cccc2ccccc12)C(N)=O)N(C)C(=O)[C@H](Cc1c[nH]c2ccccc12)NC(=O)CCOCCOCCOCCOCCNC(=O)CC[C@@H](NC(=O)CN1CCN(CC(=O)O)CCN(CC(=O)O)CCN(CC(=O)O)CC1)C(=O)O [DOTA-CCK-66, DOTA-γ-glu-(PEG)3-Trp-(N-Me)Nle-Asp-1-Nal-NH2] ({DOTA-d(γGlu)-PEG4}-W[NMeNle]D[1Nal]-NH2)",61.5%,61.5%,53.8%,69.1%,4.2 ± 0.5 nM,5 ± 0.5 nM,2010 ± 469,8.56 ± 1.08 %ID/g,significantly decreased activity levels in both stomach and tumor,−2.60 ± 0.07,5.1 ± 0.5 nM,–,–,−2.64 ± 0.04,−3.01 ± 0.07,< -3
